Source: the nanobody polyreactivity screen of Harvey et al. (2022)

Assay: yeast display, Sf9 membrane polyspecificity reagent, FACS + sequencing; frameworks hold sequencing errors
In short: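 Nanobodies came from a synthetic yeast display library in Saccharomyces cerevisiae BJ5465, induced with galactose for 36–48 hours and stained for 1 hour at 4 °C with 10% biotinylated, detergent-solubilized Sf9 membrane reagent. Cells were enriched on streptavidin microbeads and then FACS-sorted, with low and high (top ~1%) gates set on anti-HA fluorescence for expression and streptavidin fluorescence for reagent binding. Each polyreactivity label reflects the gate a clone came from. Genes were amplified by colony PCR, sequenced by MiSeq 2 × 250 and filtered by CDR length.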
In the case of “QVQLVESGGGLVQAGGSLRLSCAASGSTFTINVMGWYRQAPGKERELVAAINGGGRTNYADSVKGRFTFSRDNAKNTVYLQMNSLKPEDTAVYYCAADGLSHVRQMDYWGQGTQVTVSS”, the “polyreactivity (PSR sort gate)” value is reported as “low polyreactivity”.
With “QVQLVESGGGLVQAGGSLRLSCAASGSTFTIYAMGWYRQAPGTERELVATIRAGGGRTSYADSVKGRFTISRDNAKNTVYLQMNSLKPEDTAVYYCAVYVRPTRYGYWGQGTQVTVSS” the “polyreactivity (PSR sort gate)” value was “high polyreactivity”.
With “QVQLVESGGGLVQAGGSLRLSCAASGSTFTIYAMGWYRQATGKERELVATIRAGGGRTSYADSVKGRFTISRDNAKNTVYLQMNSLKPEDTAVYYCAVYVRPTRYGYWGQGTQVTVSS” the “polyreactivity (PSR sort gate)” value was “high polyreactivity”.
For “QVQLVESGGGLVQAGGSLRLSCAASGSTFTKNAMGWYRPAPGKERELVAVISSGGSTNYADSVKGRFTISRDNAKNTVDLQMNSLKPEDTAVYYCAAEHYILYDYLWAYDYWGQGTQVTVSS”, the “polyreactivity (PSR sort gate)” value was “high polyreactivity”.
In the case of “QVQLVESGGGLVQAGGSLRLSCAASGSTFTLYAMGWYRQAPGTERELVAAISWSGDTTYYADSVKGRFTISRDNAKNTVYLQMNILKPEDTAVYYCAADWYNSYYYEHESWGQGTQVTVSS”, the “polyreactivity (PSR sort gate)” value is reported as “high polyreactivity”.
For “QVQLVESGGGLVQAGGSLRLSCAASGSTFTLYARGWYRQAPGKERELVATITGSGGSTNYADSVKGRFTISRDNAKNTVYLQMNSLKPEDTAVYYCAADYAVYSFTEFNYWGQGTQVTVSS”, the “polyreactivity (PSR sort gate)” value was “high polyreactivity”.
With “QVQLVESGGGLVQAGGSLRLSCAASGSTFTLYVMGWYRQAPGKERELVAAISRGDTTNYADSVKGRFTISRDNAKNTVYLQMNSLKPEDTAVYYCAATYPTFFYWSKGYERDYWGQGTQVTVSS” the “polyreactivity (PSR sort gate)” value was “low polyreactivity”.
In the case of “QVQLVESGGGLVQAGGSLRLSCAASGSTFTPYAMGCYRQAPAKERELVAAINGGGTRTYYADSVKGRFTISRDHAKNTVFLQMNSLKPVDTAVYYCAARTSTSRSYPYNYWGQGTQVTGSS”, the “polyreactivity (PSR sort gate)” value is reported as “high polyreactivity”.
With “QVQLVESGGGLVQAGGSLRLSCAASGSTFTPYAMGWYRQAPGKERELVAAISRRGGSTSYADSVKGRFTISRDNAKNTVYLQMNSLKPEDTAVYYCNKKTAASDYDYWGQGTQVTVSS” the “polyreactivity (PSR sort gate)” value was “high polyreactivity”.
For “QVQLVESGGGLVQAGGSLRLSCAASGSTFTPYAMGWYRQAPGKERELVAAITWRTGSTRYADSVKGRFTISRDNAKNTVYLQMNSLKPEDTAVYYCAAKVTRFGAPGVNYWGQGTKVTVSS”, the “polyreactivity (PSR sort gate)” value was “high polyreactivity”.
For “QVQLVESGGGLVQAGGSLRLSCAASGSTFTRNAMGWYRQAPGKERELVAAITSSGGSTYYADSVKGRFTISRDNAKNTVYLQMNSLKPEDTAVYYCAAYPHRPRDRELDHWGQGTQVTVSS”, the “polyreactivity (PSR sort gate)” value was “low polyreactivity”.
For “QVQLVESGGGLVQAGGSLRLSCAASGSTFTRYAMGWYRQAPGKEREFVAGISWRGGSTYYADSVKGRFTISRDNAKNTVYFQMNSLKPEDTAVYYCAARSFSNIGYHGYGYWGQGTQVTVSW”, the “polyreactivity (PSR sort gate)” value was “high polyreactivity”.
For “QVQLVESGGGLVQAGGSLRLSCAASGSTFTRYGMGWYRQAPGKERELGAAITTSGSSTYYADSVKGRFTISRDNAKNTVYLQMNSLKPEDTAVYYCAADWSSWGFDYWGQGTQVTVSS”, the “polyreactivity (PSR sort gate)” value was “low polyreactivity”.
In the case of “QVQLVESGGGLVQAGGSLRLSCAASGSTFTSNAMGWYREAPGKEREFVAAISVGGGITYYADSVKGRFTISRDNAKNTVSLQMNSLKPEDTAVYYCAADGEYPHSEDFEYWGQGTQVNVSS”, the “polyreactivity (PSR sort gate)” value is reported as “low polyreactivity”.
In the case of “QVQLVESGGGLVQAGGSLRLSCAASGSTFTSNAMGWYRQAPGKERELVAAISFSDASTYYADSVKGRFTISRDNAKNTVYLQMNSLKPEDTAVYYCAADSDQDAYDYWGQGTQVTVSS”, the “polyreactivity (PSR sort gate)” value is reported as “low polyreactivity”.
In the case of “QVQLVESGGGLVQAGGSLRLSCAASGSTFTSNAMGWYRQAPGKERELVASISWSGGRTYYADSVKGRFTISRDNAKNTVYLQMNSLKPEDTAVYYCAAASYQSRYWNYYWGQGTQVTVSS”, the “polyreactivity (PSR sort gate)” value is reported as “high polyreactivity”.
